Data on 3 molecules can be found in patent publication US20250296995A1.

The target of the experiment is recombinant Plasmodium falciparum circumsporozoite protein (CSP) (Plasmodium falciparum) (UniProt P19597). Nature of the experiment: cell-based or functional assay.
Chain of recombinant Plasmodium falciparum circumsporozoite protein (CSP) (Plasmodium falciparum) (P19597 21-375 limits assumed): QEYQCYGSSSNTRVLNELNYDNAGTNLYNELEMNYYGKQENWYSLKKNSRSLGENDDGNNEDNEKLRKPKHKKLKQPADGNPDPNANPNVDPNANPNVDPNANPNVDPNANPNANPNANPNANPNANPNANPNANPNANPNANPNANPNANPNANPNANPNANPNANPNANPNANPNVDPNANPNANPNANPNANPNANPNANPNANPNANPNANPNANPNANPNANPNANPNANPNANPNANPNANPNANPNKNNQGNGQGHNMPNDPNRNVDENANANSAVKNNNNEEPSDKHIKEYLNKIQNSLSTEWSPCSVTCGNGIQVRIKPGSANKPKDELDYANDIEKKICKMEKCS

B1: AB-000338 ALE LS (antibody, human IgG1, kappa, V domains shown)
VH: QVQLVESGGGVVQPGRSLRLSCAASGFSFSTYGMHWIRQVPGKGLEWVAIIWHDGSKEFYADSVKGRFTISRDNSKKKLYLQMNSLRAEDTAIYYCVKDDFDSSGHSYFHYWGQGTLVTVSS
VL: GVVMTQSPLSLPVTLGQPASISCRSSQSLVHSDGNTYVHWFQQRPGQSPRRLIYKVSNRDSGVPDRFSGSGSGTDFTLKISRVEAEDVGVYYCMQGTQWWTFGQGTKVEIKR
Regarding B1, the Geo Mean EC50 (ug/ml), ADNKA, Donor 1 was 0.0035 µg/mL; the Geo Mean EC50 (ug/ml), ADNKA, Donor 2 turned out to be 0.0037 µg/mL; the Geo Mean EC50 (ug/ml), ADNKA, Donor 3 is 0.0802 µg/mL; the Geo Mean EC50 (ug/ml), ADNKA, Donor 4 was determined as 0.0214 µg/mL. The GeoMean EC50 (M), ADCP was 1.18e-11 M; the GeoMean EC50 (M), ADCP repeat, n=4 worked out at 6.55e-12 M; the Mean EC50 (pM), ADCP amounted to 11.8 pM; the Mean EC50 (pM), ADCP repeat, n=4 is 6.6 pM. The Mean pEC50, ADCP was 10.9 and the Mean pEC50, ADCP repeat, n=4 stood at 11.2.

B2: AB-000338 DEA FV LS (antibody, V domains shown)
VH: B1 VH
VL: GVVMTQSPLSLPVTLGQPASISCRSSQSLVHSDGNTYVHWFQQRPGQSPRRLIYKVSNRDSGVPDRFSGSGSGTDFTLKISRVEAEDVGVYYCMQGTQWWTFGQGTKVEIK
B2: the Geo Mean EC50 (ug/ml), ADNKA, Donor 1 is 0.0087 µg/mL; the Geo Mean EC50 (ug/ml), ADNKA, Donor 2 came out at 0.0057 µg/mL; the Geo Mean EC50 (ug/ml), ADNKA, Donor 3 amounted to 0.0272 µg/mL; the Geo Mean EC50 (ug/ml), ADNKA, Donor 4 came out at 0.0067 µg/mL. Also, the GeoMean EC50 (M), ADCP worked out at 7.21e-12 M; the Mean EC50 (pM), ADCP stood at 7.2 pM; the Mean pEC50, ADCP amounted to 11.1.

B3: AB-000338 LS (antibody, V domains shown)
VH: B1 VH
VL: B2 VL
In the case of B3, the Geo Mean EC50 (ug/ml), ADNKA, Donor 1 worked out at 0.0301 µg/mL; the Geo Mean EC50 (ug/ml), ADNKA, Donor 2 turned out to be 0.238 µg/mL; the Geo Mean EC50 (ug/ml), ADNKA, Donor 3 worked out at 0.171 µg/mL; the Geo Mean EC50 (ug/ml), ADNKA, Donor 4 was 0.0887 µg/mL. In addition, the GeoMean EC50 (M), ADCP is 9.19e-12 M; the GeoMean EC50 (M), ADCP repeat, n=4 turned out to be 1.08e-11 M; the Mean EC50 (pM), ADCP came out at 9.2 pM; the Mean EC50 (pM), ADCP repeat, n=4 amounted to 10.8 pM. Besides, the Mean pEC50, ADCP amounted to 11 and the Mean pEC50, ADCP repeat, n=4 is 11.
